Test results taken from patent US20220127334A1.

Assays:
[1] = molecular target: Human pancreatic trypsin (Athens Research & Technology, Inc) (human) (UniProt P07477); test: cell-based or functional assay
[2] = molecular target: trypsin (Examples 7 and 8, source not stated); test: cell-based or functional assay

IC50 of trypsin inhibition (fluorogenic substrate, enzyme activity) [1]: 3 nM | IC50 of inhibition of trypsin-induced IL-6 production in BEAS2B cells [2]: 0.4 µg/mL
Substance: human UTI (human urine UTI) (from UniProt P02760 206-352)
